Reference: patent publication US20210261937

Legend:
[1] = biological target: bdSUMO Mut8-MBP fusion protein
[2] = biological target: bdSUMO Mut13-MBP fusion protein
[3] = biological target: bdSUMO-MBP fusion protein
[4] = biological target: bdSUMO D67K-MBP fusion protein
[5] = biological target: hsSUMO2-MBP fusion protein
[6] = biological target: bdSUMO Mut15-MBP fusion protein
[7] = biological target: bdSUMO^Mut1-MBP fusion protein
[8] = biological target: bdSUMO Mut10-MBP fusion protein
[9] = biological target: scSUMO-MBP fusion protein
[10] = biological target: bdSUMO Mut11-MBP fusion protein
[11] = biological target: bdSUMO Mut14-MBP fusion protein
[12] = biological target: bdSUMO Mut12-MBP fusion protein
[13] = biological target: scSUMO-MBP fusion protein with the bdSUMO^Mut11 exchanges
[14] = biological target: hsSUMO2-MBP fusion protein with the bdSUMO^Mut1 exchanges
[15] = biological target: scSUMO-MBP fusion protein with the bdSUMO^Mut1 exchanges
[16] = biological target: hsSUMO2-MBP fusion protein with the bdSUMO^Mut11 exchanges

| Protein | cleavage of the SUMO fusion protein [1] | cleavage of the SUMO fusion protein [2] | cleavage of the SUMO fusion protein [3] [% cleavage] | cleavage of the SUMO fusion protein [4] | cleavage of the SUMO fusion protein [5] | cleavage of the SUMO fusion protein [6] | cleavage of the SUMO fusion protein [7] | cleavage of the SUMO fusion protein [8] | cleavage of the SUMO fusion protein [9] | cleavage of the SUMO fusion protein [10] | cleavage of 100 µM fusion, 1 h at 0 °C (FIG. 7) (SUMOstar-MBP fusion) | cleavage of the SUMO fusion protein [11] | cleavage of the SUMO fusion protein [12] | further results |
| --- | --- | --- | --- | --- | --- | --- | --- | --- | --- | --- | --- | --- | --- | --- |
| bdSENP1^MutB protease (protein) PFVPLTDEDEDNVRHALGGRKRSETLSVHEASSIVITREILQCLNDKEWLNDEVINLYLELLKERELREPNKFLKCHFFNTFFYKKLINGGYDYKSVREWTTKRKLGYNLIDCDKIFVPIHKDVHWCLAVINIKEKKFQYLDSLGYMDMKALRILAKYLVDEVKDKSGKQIDVHAWKQEGVQNLPLQENGWDCGMFMLKYIDFYSRDMELVFGQKHMSYFRRRTAKEILDLKAG | < 50 % cleavage | 100 % cleavage | < 25 | < 75 % cleavage | resistant | 100 % cleavage | 100 % cleavage | 100 % cleavage | resistant | 100 % cleavage | the SUMOstar-MBP fusion remained intact even at the highest protease concentration of 10 µM | 100 % cleavage | 100 % cleavage | cleavage of SUMO-MBP fusion (FIG. 14) [5]: wild type scSUMO and human SUMO-2 (hsSUMO2) fusion proteins remain intact even in the presence of extremely high concentration of bdSENP1^MutB; molar excess of substrate cleaved within one hour at 0 °C [7]: able to cleave a 500-fold molar excess of substrate within one hour at 0 °C; protease concentration that cleaves the cognate substrate, 1 h at 0 °C (FIG. 7) [7]: bdSENP1^MutB protease only cleaved its cognate substrate at a concentration of 200 nM; protease concentration that cleaves ≈95% of 100 µM substrate, 1 h at 0 °C [7]: only 200 nM of bdSENP1^MutB protease were enough to cleave ≈95% of the cognate substrate (bdSUMOmut 1); proteolytic efficiency against TEV protease [7]: around 1000-fold more efficient than the site-specific protease from the tobacco etch virus (TEV protease); proteolytic efficiency against bdSENP1 or Ulp1 on their cognate substrates [7]: only 5-fold less efficient as compared bdSENP1 or Ulp1; cleavage of SUMO-MBP fusion (FIG. 14) [9]: wild type scSUMO and human SUMO-2 (hsSUMO2) fusion proteins remain intact even in the presence of extremely high concentration of bdSENP1^MutB |
| SUMOstar protease (protein) LVPELNEKDDDQVQKALASRENTQLMNRDNIEITVRDFKTLAPRRWLNSGIISFFMKYIEKSTPNTVAFNSFFYTNLSERGYQGVRRWMKRKKTQIDKLDKIFTPINLNQSHWALGIIDLKKKTIGYVDSLSNGPNAMSFAILTDLQKYVMEESKHTIGEDFDLIHLDCPQQPNGYDCGIYVCMNTLYGSADAPLDFDYKDAIRMRRFIAHLILTDALK | resistant | resistant | 100 | resistant | < 25 % cleavage | resistant | resistant | resistant | 100 % cleavage | resistant | SUMOstar protease only recognized SUMOstar-MBP | resistant | resistant | cleavage of SUMO-MBP fusion, 1 h at 25 °C (FIG. 14) [13]: allowed cleavage resistance against Ulp1, SUMOstar protease, hsSENP2 and bdSENP1; cleavage of SUMO-MBP fusion, 1 h at 25 °C (FIG. 14) [14]: allowed cleavage resistance against Ulp1, SUMOstar protease, hsSENP2 and bdSENP1; cleavage of bdSUMO-MBP variants by 10 µM SUMOstar protease, 2 h at 25 °C (FIG. 5) [4]: the D67K mutation alone was necessary and sufficient for blocking cleavage; cleavage of SUMO-MBP fusion, 1 h at 25 °C (FIG. 14) [15]: allowed cleavage resistance against Ulp1, SUMOstar protease, hsSENP2 and bdSENP1; cleavage of 100 µM fusion, 1 h at 0 °C (FIG. 7) [7]: left intact the bdSUMO^Mut1-MBP fusion protein even at the highest SUMOstar protease concentration of 10 µM; cleavage of SUMO-MBP fusion, 1 h at 25 °C (FIG. 14) [16]: allowed cleavage resistance against Ulp1, SUMOstar protease, hsSENP2 and bdSENP1 |
